Data as given in the DeepSol protein solubility set.

Experiment: soluble on expression in E. coli; label from the status in PepcDB or PDB records

Row | Sequence | soluble on expression in E. coli
1 | GAMDMLGTSFNNFGISLSHKRYFSGKVDEIIRCTMGKRIVKISSTKINTSILSSVSEQIGENITDWKNDEKKVYVSRVVNQCIDKFCAEHSRKIGDNLRKQIFKQVEKDYRISLDINAAQSSINHLVSGSSYFKKKMDELCEGMNRSVKNDTTSNVANLISDQFFEKNVQYIDLKKLRGNMSDYITNLESPF | soluble
2 | GAMDPDLEATLRAIVHSATSLVDARYGAMEVHDRQHRVLHFVYEGIDEETVRRIGHLPKGLGVIGLLIEDPKPLRLDDVSAHPASIGFPPYHPPMRTFLGVPVRVRDESFGTLYLTDKTNGQPFSDDDEVLVQALAAAAGIAVANARLYQQAK | soluble
3 | GAMGDDSMRMSHLKVGSAADIPINISETDLSLLTATVVPPSGREEPCLLKRLRNGHVGISFVPKETGEHLVHVKKNGQHVASSPIPVVISQSEIGDASRVRVSGQGLHEGHTFEPAEFIIDTRDAGYGGLSLSIEGPSKVDINTEDLEDGTCRVTYCPTEPGNYIINIKFADQHVPGSPFSVKVTGEGRVK | soluble
4 | GAMGIVGVGIDLVSIPDFAEQVDQPGTVFAETFTPGERRDASDKSSSAARHLAARWAAKEAVIKAWSGSRFAQRPVLPEDIHRDIEVVTDMWGRPRVRLTGAIAEYLADVTIHVSLTHEGDTAAAVAILEAP | soluble
5 | GAMGPVDEQWIEILRIQALCARYCLTINTQDGEGWAGCFTEDGAFEFDGWVIRGRPALREYADAHARVVRGRHLTTDLLYEVDGDVATGRSASVVTLATAAGYKILGSGEYQDRLIKQDGQWRIAYRRLRNDRLVSDPSVAVNVADADVAAVVGHLLAAARRLGTQMSDT | soluble
6 | GAMGSMKPYLFDLKLKDTEKLDWKKGLSSYLKKSYGSSQWRTFYDEKATSELDHLRNNANGELAPSSLSEQNLKYYSFLEHLYFRLGSKGSRLKMDFTWYDAEYSSAQKGLKYTQHTLAFEKSCTLFNIAVIFTQIARENINEDYKNSIANLTKAFSCFEYLSENFLNSPSVDLQSENTRFLANICHAEAQELFVLKLLNDQISSKQYTLISKLSRATCNLFQKCHDFMKEIDDDVAIYGEPKWKTTVTCKLHFYKSLSAYYHGLHLEEENRVGEAIAFLDFSMQQLISSLPFKTWLVEFIDFDGFKETLEKKQKELIKDNDFIYHESVPAVVQVDSIKALDAIKSPTWEKILEPYMQDVANKYDSLYRGIIPLDVYEKESIYSEEKATLLR | soluble
7 | GASCSGGDKSKAPVVSTADIENAAEVIKYYNTSLGVLKDMVKEKDVNAVLDYMEQKGKTPALSAIVPPAVVSKDSAIVLNPGNCFNEETRRNLKQNYTGLFQARTEFYANFDTYLSYLKKKDVTNAKKLLDVNYQLSTQMSEYKQNIFDILSPFTEQAELVLLVDNPLKAQIMSVRKMSSTMQSILNLYARKHRMDGPRIDLKVAELTKQLDAAKKLPVVNGHEGEMKSYQAFLSQVETFIKQVKKVREKGEYSDADYDMLTSAFETSII | soluble
8 | GASTRDYEIQRERIELGRCIGEGQFGDVHQGIYMSPENPALAVAIKTCKNCTSDSVREKFLQEALTMRQFDHPHIVKLIGVITENPVWIIMELCTLGELRSFLQVRKYSLDLASLILYAYQLSTALAYLESKRFVHRDIAARNVLVSSNDCVKLGDFGLSRYMEDSTYYKASKGKLPIKWMAPESINFRRFTSASDVWMFGVCMWEILMHGVKPFQGVKNNDVIGRIENGERLPMPPNCPPTLYSLMTKCWAYDPSRRPRFTELKAQLSTILEEEKAQQEE | soluble
9 | GDDNEIEIPKAPVLEKAQLALAIKSEEGAVTKTGETTPTDADVNTLTVGVFGVDGWSVIYTKDATPNSDGTKDVGPQEVYAGEAHVVVVANAAPVIQTELAKAKDITDFIETTINLSDETLTKGLTMSSKVLDVTLVANTTNYIGYDDEVGDITVKDISGKEVYGAGPVPLVRDVASIALAGADIGNPENANYESKSFVLKEVFIASAKGVSSVASTEEWGTIEKDFFGDTHFGYLDYKVGLLFLTSPNNIDEGSYKKGLQTKYDALAKKHVENDPALNHEFYVYENTKGEVKSGESNVNEAYANHTLLIVKGDYTYLPQGAKESITKENCYYAIPVGEEVTIDGTEKRSKFYVQRNYKYEISLTIIGPGSEIPYDPMISTNVSASVKVEPWNVKTIHEEVE | soluble
10 | GDKAYTDAESYTKGLHKIYSVWALSGQDGSSSSDISGLDAGNTALLRCWWTLQEQPTDEMKNAWNDAWCTEVNYMTWTTNKVEPIEGVYQRCMYIVALVNEFLKNIPNAPESIDKESYIAQARFNRAFAYYVLMDMFALPPFITEKNYSIEPAPLSREDLFNWIEAELNEIKPNLPSPRSEYGVADQAVASALLARMYLNAEIYTGKARYTECINACNEVIKAGYQLADNYADLFKADNGENPDTKKEIIYPIIFDGDKTQSWGMAAIIIGARGAEDKDVLLAHSGVDQGWAGFRATSNLVHLFDFQNDEEPKASEIQDKRGIFYDKGRSIDITSSVSGTFETEGWSVFKFSNLNSNGQPGKNTLWVDTDFPMFRLGDIYLMYAEAVARGGEGSKASAVEYINALRKRAYGDDKHNISENWLEENNFRNLLDERGRELYWEGIRRTDLVRFDLLTSGSYTWDFKGGINTGVGVNKRYNVYPIPVTDLTVNGNLQQNEGY | soluble
11 | GDWLDLNTTSSVETGQAIVTLDDAQIALNGIYRLASGHSYYGDNYWYYGDCRAADVQARITKGDGKRVSPYYEYNVLASDNLNIVLPWNTVYKVIRQTNNLIQKIESGSIQSSDTKELNRIKSEALVMRGLSLFNLTRLFGMPYTNDKGASLGVPIETSPSDPTHKPSRSTVAQCYEQVVSDMSNALSGLRQETSNGYINYWAAQALLSRVYLNMGEYQKAYDAATDVIKNNGGRYQLYSYEEYPNVWGQDFQSESLFELYITLSEPSGGTGGEGAPMVYANEATVDWNNLILSEDFLNLLNEDPKDVRHCLTKESVIENNTGLPAAAMHEKVYLAKFPGKTGDDPKTNNICIIRLSEVYLNAAEAGLKKGTDIEEAQGYLNDIISRRTTDTSQQVSTETFTLDRILKERRKELVGEGEVFYDYLRNGLAIERKGSWHLETLKASNAQKIEATDLRIALPIPQSEIDANPNIQQNPR | soluble
12 | GEAPADRLKALVDAAVQPVMKANDIPGLAVAISLKGEPHYFSYGLASKEDGRRVTPETLFEIGSVSKTFTATLAGYALTQDKMRLDDRASQHWPALQGSRFDGISLLDLATYTAGGLPLQFPDSVQKDQAQIRDYYRQWQPTYAPGSQRLYSNPSIGLFGYLAARSLGQPFERLMEQQVFPALGLEQTHLDVPEAALAQYAQGYGKDDRPLRVGPGPLDAEGYGVKTSAADLLRFVDANLHPERLDRPWAQALDATHRGYYKVGDMTQGLGWEAYDWPISLKRLQAGNSTPMALQPHRIARLPAPQALEGQRLLNKTGSTNGFGAYVAFVPGRDLGLVILANRNYPNAERVKIAYAILSGLEQQGKVPLKR | soluble
13 | GEYKMILVVRNDLKMGKGKVAAQCSHAAVSAYKQIQRRNPEMLKQWEYCGQPKVVVKAPDEETLIALLAHAKMLGLTVSLIQDAGRTQIAPGSQTVLGIGPGPADLIDKVTGHLKLY | soluble
14 | GGGSGGSKKDEHKQQGELYMWDSIDQKWTRHYCAIADAKLSFSDDIEQTMEEDNPLGSLCRGILDLNTYNVVKAPQGKNQKSFVFILEPKQQGDPPVEFATDRVEELFEWFQSIREITWKIDTK | soluble
15 | GGHDVPLTNYLNAQYYTDITLGTPPQNFKVILDTGSSNLWVPSNECGSLACFLHSKYDHEASSSYKANGTEFAIQYGTGSLEGYISQDTLSIGDLTIPKQDFAEATSEPGLTFAFGKFDGILGLGYDTISVDKVVPPFYNAIQQDLLDEKRFAFYLGDTSKDTENGGEATFGGIDESKFKGDITWLPVRRKAYWEVKFEGIGLGDEYAELESHGAAIDTGTSLITLPSGLAEMINAEIGAKKGSTGQYTLDCNTRDNLPDLIFNFNGYNFTIGPYDYTLEVSGSCISAITPMDFPEPVGPLAIVGDAFLRKYYSIYDLGNNAVGLAKAI | soluble
16 | GGMEVLDLVTGPDSVTEIEAFLNPRMGQPPTPESLTEGGQYYGWSRGINLATSDTEDSPGNNTLPTWSMAKLQLPMLNEDLTCDTLQMWEAVSVKTEVVGSGSLLDVHGFNKPTDTVNTKGISTPVEGSQYHVFAVGGEPLDLQGLVTDARTKYKEEGVVTIKTITKKDMVNKDQVLNPISKAKLDKDGMYPVEIWHPDPAKNENTRYFGNYTGGTTTPPVLQFTNTLTTVLLDENGVGPLCKGEGLYLSCVDIMGWRVTRNYDVHHWRGLPRYFKITLRKRWVKNPYP | soluble
17 | GGSGGTSTAGNPNVNVPNNQITAKSKKEFIQQAMPIAKAIEEKWGVPAEVVIAQAALESGWGKHVKGNAYFGIKGKGSQGSINFGTHEVINGKKISINDNFASYGGFGDAANGYGEFLNKNKRYREAFKHKDNPVEFAKAIARAGYATDPDYANKLTKIIQSNKF | not soluble
18 | GGSGWNADNVDPSQCIKQSGVQYTYNSGVSVCMQGLNEGKVRGVSVSGVFYYNDGTTSNFKGVVTPSTPVNTNQDINKTNKVGVQKYRALTEWVGSRSHHHHHH | soluble
19 | GGVQLNFGGNFTYNKNEILSLGNVDVQKDARTIRMVGKEFNAFYGYKSDGIFQSKEEIANAPKYTMISNDRLIPGDIKLVDINGDGEINPDDKVILSSENPKYTFAFNLGARWKMFDINLFFQGAAGVSRYFTDEFYGEFNGDSGHPSNHWLGRWTPENPTNKWPRASKFRTYNLPETTCSDFWLVNTNYLRLKDIQVGFNVPKEWLQAVRLGSARIYYSGTNLLTFSKTPQGIDPEAPAGWGAYYPHVKTHSIGINITL | not soluble
20 | GGVVVTPRAPYIHDLDGLPMAWDLVEWPIYTYRAKNDARLAIVSSSRGCKQQCSFCSQQLFWSQSWRARSAENFVAELEMLHTVHGVQVAMLSDEIPTFDRQRWVRILDLMIERQVPVKLLMETRVDDILRDADIMDRYREGGVEHIYVGVEAGTQETLDLFKKDTQVEQSKQAIDLINNADIVSETSFVLGMPDDTPESIAQTIELAKHYNPDMAFFLAIAPWPYAELYPQLEEYVATKDYRKYNLVEPVIKPKHMTLEELERQLGKASQQFFMH | not soluble
21 | GHHHHHHAIAENLYFQSMEYGHHARPDSKRPLDEGSPAAAGLTSKKANEALTRNRELTTVLVKNLPKSYNQNKVYKYFKHCGPIIHVDVADSLKKNFRFARIEFARYDGALAAITKTHKVVGQNEIIVSHLTECTLWMTNFPPSYTQRNIRDLLQDINVVALSIRLPSLRFNTSRRFAYIDVTSKEDARYCVEKLNGLKIEGYTLVTKVSNPLEKSKRTDSATLEGREIMIRNLSTELLDENLLRESFEGFGSIEKINIPAGQKEHSFNNCCAFMVFENKDSAERALQMNRSLLGNREISVSLADKKP | soluble
22 | GHMAKHQIGVIGLAVMGKNLALNIESKGYSVAVYNRLREKTDEFLQEAKGKNIVGTYSIEEFVNALEKPRKILLMVKAGAPTDATIEQLKPHLEKGDIVIDGGNTYFKDTQRRNKELAELGIHFIGTGVSGGEEGALKGPSIMPGGQKEAHELVRPIFEAIAAKVDGEPCTTYIGPDGAGHYVKMVHNGIEYGDMQLIAEAYFLLKHVLGMDAAELHEVFADWNKGELNSYLIEITADIFTKIDEETGKPLVDVILDKAGQKGTGKWTSQNALDLGVPLPIITESVFARFLSAMKDERVKASKVLAGPAVKPFEGDRAHFIEAVRRALYMSKICSYAQGFAQMKAASEEYNWNLRYGDIAMIFRGGCIIRAQFLQKIKEAYDRDPALSNLLLDSYFKDIVERYQDALREIVATAAMRGIPVPGSASALAYYDSYRTAVLPANLIQAQRDYFGAHTYERVDKEGIFHTEWLK | soluble
23 | GHMAKTDRSQPSVLARIAAFRTGLSAEASAADYLERQGYRILARRFKTRCGEIDLVAQRDALVAFVEVKARGNVDDAAYAVTPRQQSRIVAAAEAWLSRHPEHAMSELRFDAILIAPNTAPRHLPGAFDATPGS | soluble
